The text below walks through data of WO2013091903A1 (dated 2013).

Positions count from the first letter of the chain named.

Sequences and labels used below:
T1: Peptide 1415 (entire second extracellular loop of human ORAI1) (human)
T1 peptide: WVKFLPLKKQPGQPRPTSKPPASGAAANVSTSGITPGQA

T2: Peptide 1455 (part of the second extracellular loop of human ORAI1) (human)
T2 peptide: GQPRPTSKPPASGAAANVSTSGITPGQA

T3: Peptide 1454 (part of the second extracellular loop of human ORAI1) (human)
T3 peptide: PASGAAANVSTSGITPGQA

B1: M-hCRAC1415-15F3A6 (antibody, IgG1, V domains shown)
VH: QVQLQQSGAELVRPGSSVKISCKASGYAFSSYWMNWVKQRPGQGLEWIGHIYPGDADTNYNGKFKGKATLTADKSSSTAYMHLSSLTSEDSAVYFCSRQLGFRYAMDYWGQGTSVTVSS
VL: DIVMSQSPSSLAVSAGEKVTMSCKSSQSLLNSRTRKNYLAWYQQKPGQSPKLLIYWASTRESGVPDRFTGSGSGTDFTLTISSVQAEDLAVYYCKQSYNLRTFGGGTKLEIKR
notes: same variable domains as 17F6A2
B2: M-hCRAC1415-15F45A1 (antibody, IgG1, V domains shown)
VH: B1 VH
VL: B1 VL
notes: as for B1
B3: M-hCRAC1415-17F1A4B6 (antibody, IgG1, V domains shown)
VH: B1 VH
VL: B1 VL
notes: as for B1
B4: M-hCRAC1415-17F6A2 (antibody, mouse IgG1, V domains shown)
VH: B1 VH
VL: B1 VL
notes: Mouse monoclonal, kappa light chain; also called Anti-M-CRAC1415-17F6A2
B5: M-hCRAC1415-14F74A1 (antibody, mouse IgG1, V domains shown)
VH: B1 VH with A56G, H82Q, S85G, S97A, Q99S, L100G, G101R, F102L, Y104F
VL: B1 VL with K112Q
notes: Mouse monoclonal, kappa light chain; also called Anti-M-CRAC1415-14F74A1
B6: anti-M-CRAC1415-10F8 A2B6C1 (antibody, IgG1, V domains shown)
VH: QVQLQQSGAELVRPGSSVKISCKASGYAFRSYWMNWVKQRPGQGLEWIGHIYPGDGDTNYNGKFKGKATLTADKSSSTAYMQLSSLTSEDSAVYLCGRGGTTVVVDYWGQGTTLTVSS
VL: DIVMSQSPSSLAVSAGEKVTMSCKSSQSLLNSRTRKNYLAWYQQKPGQSPKLLIYWASTRESGVPDRFTGSGSGTDFTLTISSVQAEDLAVYYCKQSYNLPWTFGGGTKLEIKR

The first experiment deals with T1, Peptide 1415 (entire second …). Briefly: direct peptide ELISA, peptide coated at 1 ug/ml; (+) indicates binding was detected. In general terms: ELISA stands for enzyme-linked immunosorbent assay.
As for B1, the binding result is “binds”.
As for B2, the binding result is “binds”.
For the molecule B3, the binding result is “binds”.
Same read-out and setting: the entry for B4 is “binds”; for B5 it is “binds”.

A further experiment addresses T2, Peptide 1455 (part of the second …). The description is as above.
As to B1, the binding result is recorded as “binds”.
Turning to B2, the binding result is “binds”.
Same read-out and setting: the entry for B3 is “binds”.
Still for that read-out and setting: the entry for B4 is “binds”; for B5 it is “binds”.

The next experiment concerns the target T3, Peptide 1454 (part of the second …). Briefly: direct peptide ELISA, peptide coated at 1 ug/ml; (-) indicates binding could not be detected.
Take B1: the binding result is reported as “no binding”.
The same measure, in the same setting: the entry for B2 is “no binding”.
With B3, the binding result is “no binding”.
Consider B4, for which the binding result was “no binding”.
Consider B5, for which the binding result is given as “no binding”.

Another experiment deals with human ORAI1 (CRAC channel membrane protein 1) (human, UniProt Q96D31 1-301). Briefly: cell-based or functional assay.
Chain of human ORAI1 (CRAC channel membrane protein 1) (Q96D31 whole entry, form in doubt): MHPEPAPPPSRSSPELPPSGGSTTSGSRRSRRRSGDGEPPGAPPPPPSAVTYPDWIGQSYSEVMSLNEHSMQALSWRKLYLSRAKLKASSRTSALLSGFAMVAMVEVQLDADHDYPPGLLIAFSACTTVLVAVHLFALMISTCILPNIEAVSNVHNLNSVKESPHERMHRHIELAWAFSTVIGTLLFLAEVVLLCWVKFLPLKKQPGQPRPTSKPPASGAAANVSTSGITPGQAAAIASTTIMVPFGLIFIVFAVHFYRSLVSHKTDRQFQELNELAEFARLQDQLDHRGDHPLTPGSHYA
With B6, the “IC50 of inhibition of PBMC (T cell) proliferation, anti-CD3/CD28 stimulation” value was found to be 1 µg/mL.
